Test results taken from patent US20190248888A1, “METHODS OF LOWERING BLOOD GLUCOSE LEVELS” (Regeneron Pharmaceuticals, Inc., priority 2016, published 2019).

Tested on: isolated pancreatic islets from mice
Test: RNAseq gene expression in isolated pancreatic islets of GCGR antibody treated mice (Table 5)
Format: in vivo, mouse
Conditions: 10 mg/kg, 21 days
Procedure: Mouse islets were isolated by density gradient separation after perfusing pancreas with Liberase TL (Roche, Indianapolis) through the common bile duct. Following a 13 min digestion at 37° C., the pancreas solution was washed and filtered through a 400-μm wire mesh strainer and islets were separated by Histopaque gradient centrifugation (Sigma-Aldrich). Isolated islets were cultured overnight in RPMI-1640 medium supplemented with 10% (v/v) FBS, 10 mM HEPES, 50 μM β-mercaptoethanol, 1.0 mM sodium-pyruvate, 100 U/mL penicillin and 100 μg/mL streptomycin at 37° C. with a 5% CO2 in air atmosphere.
Total RNA was purified from all samples using MagMAX™-96 for Microarrays Total RNA Isolation Kit (Ambion by Life Technologies) according to manufacturer's specifications. Genomic DNA was removed using MagMAX™Turbo™DNase Buffer and TURBO DNase from the MagMAX kit listed above (Ambion by Life Technologies). mRNA was purified from total RNA using Dynabeads® mRNA Purification Kit (Invitrogen). Strand-specific RNA-seq libraries were prepared using ScriptSeq™ mRNA-Seq Library Preparation Kit (Epicentre). Twelve-cycle PCR was performed to amplify libraries. Sequencing was performed on Illumina HiSeq®2000 (Illumina) by multiplexed single-read run with 33 cycles.
Raw sequence data (BCL files) were converted to FASTQ format via Illumina Casava 1.8.2. Reads were decoded based on their barcodes and read quality was evaluated with FastQC (http://www.bioinformatics.babraham.ac.uk/projects/fastqc/). Reads were mapped to the mouse transcriptome (NCBI GRCh37) using CLC Genomics Workbench Version 7.0 (CLCbio) or TopHat2 (Version 2.0.10) allowing two mismatches. Reads mapped to the exons of a gene were summed at the gene level. To identify differentially expressed genes, the statistical significance (p-value) of the differential expressions was assessed with DESeq package (version 1.6 or 2.0). […]

[1] = α-GCGR vs Control, isolated islets

B1: α-GCGR: potent monoclonal GCGR blocking antibody, HCVR/LCVR SEQ ID NOs: 86/88 (antibody, V domains shown)
VH: EVQLVESGGGLVQPGGSLRLSCAASGFTFSNYLMNWVRQAPGKGLEWLANIQEDGIEKYYVDSVKGRFTISRDNAKNSLYLQMNSLRAEDTAVYYCAREPSHYDILTGYDYYYGMDVWGQGTTVTVS
VL: DIQMTQSPSSLSASVGDRVTITCRASQGIRNDLGWYQQKPGKAPKRLIYAASSLQSGVPSRFSGSGSGTEFILTVSSLQPEDFATYYCLQYNSNPFTFGPGTKVDIK
mice, vs control antibody
  Slc38a5 gene expression in isolated pancreatic islets: most upregulated gene
[1]
  1700086L19Rik Fold change: 1.89
  1810011O10Rik Fold change: −1.64
  1810041L15Rik Fold change: 1.67
  4930539E08Rik Fold change: 1.96
  9030617O03Rik Fold change: 1.72
  AW551984 Fold change: 1.69
  Acta1 Fold change: −1.79
  Agpat4 Fold change: 1.73
  Agt Fold change: 1.78
  Ang Fold change: 1.62
  Ano1 Fold change: −1.78
  Anxa3 Fold change: −1.53
  Anxa13 Fold change: −1.60
  Apoa2 Fold change: 1.68
  Apod Fold change: 1.53
  Apol7a Fold change: −1.51
  Arg1 Fold change: 1.53
  Arx Fold change: 1.59
  Asb11 Fold change: −1.51
  Avpr1b Fold change: 2.54
  Basp1 Fold change: 1.65
  Blnk Fold change: 1.55
  Bok Fold change: −1.85
  Car9 Fold change: −1.55
  Cdc42ep1 Fold change: −1.54
  Clec2d Fold change: 1.82
  Clic6 Fold change: −1.69
  Clu Fold change: −1.80
  Cnih2 Fold change: 1.55
  Cobl Fold change: 1.58
  Ctse Fold change: −1.50
  Dbpht2 Fold change: 1.87
  Dmbt1 Fold change: −1.61
  Dpp6 Fold change: 1.79
  Drc1 Fold change: 1.96
  Eda2r Fold change: 1.59
  Eef1a2 Fold change: 2.18
  Ehf Fold change: 1.61
  Etv1 Fold change: 1.62
  F5 Fold change: 1.51
  Ffar4 Fold change: 1.78
  Fgd3 Fold change: −1.67
  Fgl2 Fold change: 1.65
  Gamt Fold change: −1.50
  Gbp8 Fold change: 1.84
  Gbp9 Fold change: 1.74
  Gc Fold change: 1.83
  Gcg Fold change: 3.55
  Gcnt4 Fold change: 1.58
  Gfra1 Fold change: 1.53
  Gfra3 Fold change: 2.71
  Gm609 Fold change: 2.04
  Gm20554 Fold change: 1.67
  Gng2 Fold change: 1.63
  Gpr119 Fold change: 1.54
  Gpx3 Fold change: 2.86
  Hspb1 Fold change: −1.54
  Ifih1 Fold change: 2.33
  Igsf23 Fold change: −1.65
  Irx1 Fold change: 1.83
  Irx2 Fold change: 2.00
  Itgb4 Fold change: −1.69
  Jchain Fold change: 1.57
  Kcna2 Fold change: −1.68
  Kcnab3 Fold change: −1.73
  Kcnf1 Fold change: −1.56
  Kcnk3 Fold change: 2.23
  Klb Fold change: 1.77
  Klhl13 Fold change: 1.91
  Krt19 Fold change: −1.61
  Krt20 Fold change: −1.63
  Krt23 Fold change: −1.96
  Lamb3 Fold change: −1.71
  Mafb Fold change: 1.86
  Mamld1 Fold change: 1.75
  Mapk13 Fold change: −1.50
  Matn2 Fold change: −1.55
  Ndst4 Fold change: 2.71
  Necab2 Fold change: −1.50
  Nefm Fold change: 1.53
  Npr1 Fold change: −1.65
  Nptxr Fold change: −1.57
  Nsg2 Fold change: 1.56
  Ntn1 Fold change: −1.61
  Nudt11 Fold change: 2.00
  Nyap1 Fold change: 1.77
  Ocrl Fold change: 1.57
  Oit1 Fold change: 1.71
  Olfm3 Fold change: 1.96
  Oxtr Fold change: 1.53
  Pdk4 Fold change: 2.83
  Peg10 Fold change: 2.06
  Pla2g2d Fold change: 1.50
  Ptf1a Fold change: −1.95
  Ptprd Fold change: 1.62
  Ptprg Fold change: 1.52
  Rasd1 Fold change: −1.54
  Rbms3 Fold change: 1.51
  Rbp4 Fold change: 1.64
  Rcn1 Fold change: 1.54
  Rragb Fold change: 1.67
  Sema3e Fold change: 1.81
  Serpinb6b Fold change: −1.68
  Serpine2 Fold change: 2.80
  Serping1 Fold change: 1.71
  Sftpd Fold change: 2.07
  Sgce Fold change: 1.84
  Sh2d4a Fold change: −1.52
  Sh3bgr Fold change: 1.54
  Slc38a3 Fold change: −1.54
  Slc38a5 Fold change: 5.54
  Smarca1 Fold change: 1.88
  Spns2 Fold change: −1.76
  St8sia1 Fold change: −1.67
  Syt16 Fold change: 1.63
  Tead2 Fold change: −1.60
  Tesc Fold change: 1.54
  Tmsb15b1 Fold change: 1.60
  Tspan1 Fold change: −2.50
  Ttr Fold change: 4.27
  Vnn1 Fold change: −1.50
  Vwde Fold change: 2.23
  Wfdc16 Fold change: 1.51
  Wnk3 Fold change: 2.33
